From PMC11806408

Biological target: N‐10/C‐9 fusion PD (human)
Experiment: SPR; PDs of BMP‐9, BMP‐10 and N‐10/C‐9 fusion PD immobilised at 450 RUs on a CM5 chip by amine coupling; BMP‐10 GF 0 to 80 nM, 1:2 serial dilutions, 1× HBS‐EP; 1:1 model with mass transfer; apparent KD = kd/ka

B1: BMP‐10 GF (R&D Systems #2926‐BP‐025/CF) (ligand)
chain: NAKGNYCKRTPLYIDFKEIGWDSWIIAPPGYEAYECRGVCNYPLAEHLTPTKHAIIQALVHLKNSQKASKACCVPTKLEPISILYLDKGVVTYKFKYEGMAVSECGCR
  Kd: 13.2 nM
  koff: 0.0032 s⁻¹
  kon: 220000 M⁻¹ s⁻¹
